B1: eNOS(p), peptide of the calmodulin-binding domain of endothelial nitric oxide synthase (peptide)
peptide: RKKTFKEVANAVKISASLMG
notes: Synthetic peptide for ITC and for titration of CaM; The expressed version used for target-domain NMR carries an extra amino-terminal GS
B2: PDE(p), peptide of the calmodulin-binding domain of phosphodiesterase (C15S) (peptide)
peptide: QTEKMWQRLKGILRSLVKQ
notes: C15S is used to avoid oxidation; also called PDEs(p)
B3: nNOS(p), peptide of the calmodulin-binding domain of neuronal nitric oxide synthase (peptide)
peptide: KRRAIGFKKLAEAVKFSAKLMGQ
notes: Synthetic peptide for ITC and for titration of CaM
B4: CaMKI(p), peptide of the calmodulin-binding domain of calmodulin kinase I (peptide)
peptide: AKSKWKQAFNATAVVRHMRKLQ
notes: Synthetic peptide for ITC and for titration of CaM; The expressed version used for target-domain NMR carries an extra amino-terminal GS; also called CaMK1p

Columns and labels:
[1] = biological target: T1, calcium-saturated calmodulin (human CaM, GenBank AAD45181) (human, UniProt P0DP23 2-149); assay: isothermal titration calorimetry, CaM (200 µM) titrated into 5-20 µM peptide, 308 K
[2] = biological target: T1, calcium-saturated calmodulin (human …); assay: isothermal titration calorimetry, CaM (200 µM) titrated into 5-20 µM peptide, 308 K; footnote c: From Frederick et al.

Binder | -TΔSbinding^total [1] [kcal/mol] | ΔGbinding^total [1] [kcal/mol] | ΔHbinding^total [1] [kcal/mol] | -TΔSbinding^total [2] [kcal/mol] | ΔGbinding^total [2] [kcal/mol] | ΔHbinding^total [2] [kcal/mol]
B1 | 6.14 | -11.8 | -17.9 |  |  | 
B2 | 8.1 | -9.06 | -17.2 |  |  | 
B3 | -0.454 | -12.4 | -11.9 |  |  | 
B4 |  |  |  | 16.6 | -11.8 | -28.4
